Test results published in the Human Domainome abundance scans (Beltran et al. 2025).

B1: E3 ubiquitin-protein ligase TRIM36, residues 208 to 252; numbered along this chain, Q9NQ86 (parent)
chain: KILMCPEHETERINMYCELCRRPVCHLCKLGGNHANHRVTTMSSA

Variants of: B1
Assay: abundance fitness (aPCA) (normalised: wild type 0, dead -1); higher = more abundant; growth selection in yeast, the domain comes from the species named
Conditions: Homo sapiens

Abundance fitness of substitutions, site by site:
C17: H -0.656, T -0.796, E -0.763, L -1.04, F -1.21, G -0.733, A -1.01, Q -0.954, V -0.813, Y -0.862, P -0.705, R -0.909, S -0.897, W -1.16
E18: T -0.147, S -0.148, A -0.145, R -0.385, P -0.269, W -0.236, N -0.151, L -0.196, G -0.123, D 0.116, H -0.343, V -0.172, Y -0.416, K -0.172, Q -0.08, M -0.178, C -0.209
H8: S -0.786, G -0.766, Y -0.983, M -1.4, F -0.795, L -1.24, R -0.841, K -0.638, T -0.72, W -1.6, N -0.819, A -0.951, C -0.611, V -1.13, D -0.858, Q -0.716
Y16: M 0.11, Q -0.306, R -0.069, D -0.105, T 0.284, H 0.082, S -0.135, F -0.046, G -0.478, K -0.16, W -0.04, V -0.437, L -0.053, A -0.264, P -0.111
E11: V -0.126, Y 0.082, L -0.196, Q -0.079, W -0.52, P -0.854, K -0.259, R -0.602, M -0.322, S -0.132, C -0.773, A -0.376, G -0.047
K1: W -0.508, Y -0.497
L3: I 0.061, H -0.131, N -0.013, A -0.001, Y -0.008, F -0.04, E 0.163, V -0.037, C -0.055, K 0.006, R -0.114, D 0.07, G -0.016, M 0.092, P -0.128, T 0.036, W -0.254, S -0.007
P23: A -0.064, K -0.146, H -0.113, G 0.006, I -0.373, D 0.037, C -0.2, E 0.037
M4: W -0.191, E -0.173, H -0.133, D -0.189, F 0.188, T -0.072, S -0.203, V -0.077, L -0.187, P -0.288, K -0.054, Q -0.181, Y 0.031, G -0.238, R -0.165, I -0.063, N -0.101, C -0.075
P6: W -0.378, K 0.023, E -0.016, R -0.145, N -0.139, Q -0.042, H -0.108, D -0.092, Y -0.228, G -0.14, V -0.069, F -0.234, A -0.072, M -0.224, T 0.018, I -0.219, C -0.235
C5: Y -1, E -0.655, P -1.06, N -0.84, V -0.907, Q -0.996, K -0.688, A -0.82, I -1.14, F -1.08, G -0.744, W -1.41, H -0.873, S -0.765, M -1.02, T -0.703, R -0.976, D -0.536, L -0.929
T10: F -0.337, M -0.038, A -0.12, Q 0.021, G -0.071, R -0.039, W -0.273, V -0.161, L -0.142, E -0.049, Y -0.171, C -0.06, H -0.039, K 0.041, S -0.078, P -0.015, N -0.282, D -0.132
L19: V 0.039, W -0.088, F -0.287, D 0.021, R 0.076, N 0.169, K 0.052, H 0.004, I 0.04, G 0.068, M 0.004, S 0.069, P 0.029, C 0.137, Q 0.004, E 0.117
N14: W -0.224, F 0.08, R -0.149, V 0.034, K 0.036, T 0.172, A -0.037, Y -0.065, G -0.152, S -0.041, D -0.13, C 0.106, H 0.055, P -0.195, L 0.036, Q 0.018, M 0.073, E 0.048
E9: G 0.008, H -0.069, P 0.075, S 0.07, Q -0.062, V -0.051, I -0.042, Y -0.076, A -0.043, T 0.053, K 0.079, N -0.052, C -0.074, R -0.072, M -0.099, L -0.04, D 0.008
M15: V -0.309, R -0.329, A -0.166, Q -0.285, T -0.08, E -0.024, C 0.12
R12: I -0.14, D -0.539, G -0.057, E -0.016, S -0.38, P 0.186, L -0.034, A -0.258, W -0.269, K -0.365
R22: W -0.34, M -0.163, S 0.047, L -0.029, V -0.01, D -0.197, Y -0.265, F -0.113, E 0.034, H 0.013, P -0.344, C -0.118, Q 0.036, N -0.291, A 0.01, I -0.227, T -0.09, G -0.116, K 0.068
R21: Q -0.002, G -0.116, Y 0.027, D 0.067, C -0.083, N -0.121, P -0.387, W -0.416, E 0.171, V 0.01, F -0.425, S -0.002, L -0.084, K 0.108, A 0.002, T -0.061
I13: M 0.049, L 0.032, W -0.035, G 0.145, P 0.166, R -0.143, A -0.015
I2: L -0.083, V -0.157, Y -0.532, E -0.042, D 0.012, N 0.011, M -0.068, S -0.19, W -0.405, A -0.165, C -0.345, T -0.097, K -0.234, R -0.243, G -0.115, F -0.001, H -0.139, P -0.386
C20: D -0.393, P -0.819, R -0.561, S -0.679, G -0.595, Q -0.504, H -0.665, M -0.534, E -0.491, F -1.37, L -0.591, W -1.16, A -0.652, K -0.547, I -1.01, V -0.789
E7: S -0.103, Q -0.041, W -0.315, G -0.292, A -0.064, T -0.042, R -0.104, L -0.127, F -0.129, H 0.01, N -0.169, V -0.011, C -0.209, P -0.783, K -0.085
